Data from the MegaScale stability set (Tsuboyama et al. 2023).

B1: EHEE_rd2_0196 (parent)
chain: TETRTFDSEEEAKKAQKEAEKQGRTVTITRRDDRWEVRFD

Variants of: B1
Test: folding stability dG (cDNA display proteolysis); higher = more stable
Conditions: PBS, room temperature

In order of rising “folding stability dG” value:
1. TETRTFDSEEEAKKAQKEAEKQGRTVTDTRRDDRWEVRFD [I28D]  -0.611 kJ/mol
2. TETRTFDSEEEAKKAQKEAEKQGRTVTHTRRDDRWEVRFD [I28H]  -0.515 kJ/mol
3. TETRTFDSEEEAKKAQKEAEKQGRTVTIPRRDDRWEVRFD [T29P]  0.0669 kJ/mol
4. TETRTFDSEEEAKKAQKEAEKQGRTQTITRRDDRWEVRFD [V26Q]  0.272 kJ/mol
5. TETRTFDSEEEAKKAQKEAEKQGRTVTETRRDDRWEVRFD [I28E]  0.293 kJ/mol
6. TETRTFDSEEEAKKAQKEAEKQGRTRTITRRDDRWEVRFD [V26R]  0.49 kJ/mol
7. TETRTFDSEEEAKKAQKEAEKQGRTDTITRRDDRWEVRFD [V26D]  0.502 kJ/mol
8. TETRTFDSEEEAKKAQKEAEKQGRTKTITRRDDRWEVRFD [V26K]  0.77 kJ/mol
9. TETRTFDSEEEAKKAQKEAEKQGRTVTGTRRDDRWEVRFD [I28G]  0.971 kJ/mol
10. TETRTFDSEEEAKKAQKEAEKQGRTWTITRRDDRWEVRFD [V26W]  1.06 kJ/mol
11. TETRTFDSEEEAKKAQKEAEKQGRTHTITRRDDRWEVRFD [V26H]  1.08 kJ/mol
12. TETRTFDSEEEAKKAQKEAEKQGRTVTPTRRDDRWEVRFD [I28P]  1.16 kJ/mol
13. TETRTFDSEEEAKKAQKEAEKQGRTETITRRDDRWEVRFD [V26E]  1.33 kJ/mol
14. TETRTFDSEEEAKKAQKEAEKQGRTVTYTRRDDRWEVRFD [I28Y]  1.39 kJ/mol
15. TETRTFDSEEEAKKAQKEAEKQGRTVTFTRRDDRWEVRFD [I28F]  1.43 kJ/mol
16. TETRTFDSEEEAKKAQKEAEKQGRTVTQTRRDDRWEVRFD [I28Q]  1.72 kJ/mol
17. TETRTFDSEEEAKKAQKEAEKQGRTVTNTRRDDRWEVRFD [I28N]  1.77 kJ/mol
18. TETRTFDSEEEAKKAQKEAEKQGRTVTSTRRDDRWEVRFD [I28S]  2.7 kJ/mol
19. TETRTFDSEEEAKKAQKEAEKQGRTNTITRRDDRWEVRFD [V26N]  2.89 kJ/mol
20. TETRTFDSEEEAKKAQKEAEKQGRTVTKTRRDDRWEVRFD [I28K]  2.99 kJ/mol
21. TETRTFDSEEEAKKAQKEAEKQGRTVTATRRDDRWEVRFD [I28A]  3.52 kJ/mol
22. TETRTFDSEEEAKKAQKEAEKQGRTFTITRRDDRWEVRFD [V26F]  3.52 kJ/mol
23. TETRTFDSEEEAKKAQKEAEKQGRTYTITRRDDRWEVRFD [V26Y]  3.55 kJ/mol
24. TETRTFDSEEEAKKAQKEAEKQGRTMTITRRDDRWEVRFD [V26M]  4.92 kJ/mol
25. TETRTFDSEEEAKKAQKEAEKQGRTVTTTRRDDRWEVRFD [I28T]  4.93 kJ/mol
26. TETRTFDSEEEAKKAQKEAEKQGRTLTITRRDDRWEVRFD [V26L]  5.13 kJ/mol
27. TETRTFDSEEEAKKAQKEAEKQGRTVTRTRRDDRWEVRFD [I28R]  5.49 kJ/mol
28. TETRTFDSEEEAKKAQKEAEKQGRTVTITRRPDRWEVRFD [D32P]  7.34 kJ/mol
29. TETRTFDSEEEAKKAQKEAEKQGRTVTMTRRDDRWEVRFD [I28M]  7.42 kJ/mol
30. TETRTFDSEEEAKKAQKEAEKQGRTVTIWRRDDRWEVRFD [T29W]  7.55 kJ/mol
31. TETRTFDSEEEAKKAQKEAEKQGRTPTITRRDDRWEVRFD [V26P]  7.83 kJ/mol
32. TETRTFDSEEEAKKAQKEAEKQGRTVTIGRRDDRWEVRFD [T29G]  8.43 kJ/mol
33. TETRTFDSEEEAKKAQKEAEKQGRTVTLTRRDDRWEVRFD [I28L]  8.63 kJ/mol
34. TETRTFDSEEEAKKAQKEAEKQGRTITITRRDDRWEVRFD [V26I]  8.68 kJ/mol
35. TETRTFDSEEEAKKAQKEAEKQGRTVTITRRIDRWEVRFD [D32I]  8.82 kJ/mol
36. TETRTFDSEEEAKKAQKEAEKQGRTVTIYRRDDRWEVRFD [T29Y]  9.23 kJ/mol
37. TETRTFDSEEEAKKAQKEAEKQGRWVTITRRDDRWEVRFD [T25W]  9.29 kJ/mol
38. TETRTFDSEEEAKKAQKEAEKQGRTVTIFRRDDRWEVRFD [T29F]  9.63 kJ/mol
39. TETRTFDSEEEAKKAQKEAEKQGRYVTITRRDDRWEVRFD [T25Y]  9.73 kJ/mol
40. TETRTFDSEEEAKKAQKEAEKQGRTVTIARRDDRWEVRFD [T29A]  9.87 kJ/mol
41. TETRTFDSEEEAKKAQKEAEKQGRTVTCTRRDDRWEVRFD [I28C]  10.3 kJ/mol
42. TETRTFDSEEEAKKAQKEAEKQGRTVTIMRRDDRWEVRFD [T29M]  10.4 kJ/mol
43. TETRTFDSEEEAKKAQKEAEKQGRTVTITRRRDRWEVRFD [D32R]  10.4 kJ/mol
44. TETRTFDSEEEAKKAQKEAEKQGRTVTITRRFDRWEVRFD [D32F]  10.7 kJ/mol
45. TETRTFDSEEEAKKAQKEAEKQGRTVTIQRRDDRWEVRFD [T29Q]  10.8 kJ/mol
46. TETRTFDSEEEAKKAQKEAEKQGRTVTITRRMDRWEVRFD [D32M]  10.9 kJ/mol
47. TETRTFDSEEEAKKAQKEAEKQGRTGTITRRDDRWEVRFD [V26G]  10.9 kJ/mol
48. TETRTFDSEEEAKKAQKEAEKQGRTVTITRRLDRWEVRFD [D32L]  11 kJ/mol
49. TETRTFDSEEEAKKAQKEAEKQGRTVTISRRDDRWEVRFD [T29S]  11.4 kJ/mol
50. TETRTFDSEEEAKKAQKEAEKQGRTVTIHRRDDRWEVRFD [T29H]  11.5 kJ/mol
51. TETRTFDSEEEAKKAQKEAEKQGRTTTITRRDDRWEVRFD [V26T]  11.6 kJ/mol
52. TETRTFDSEEEAKKAQKEAEKQGRTVTITRRHDRWEVRFD [D32H]  11.8 kJ/mol
53. TETRTFDSEEEAKKAQKEAEKQGRTVTVTRRDDRWEVRFD [I28V]  11.8 kJ/mol
54. TETRTFDSEEEAKKAQKEAEKQGRTVTITRRADRWEVRFD [D32A]  12.2 kJ/mol
55. TETRTFDSEEEAKKAQKEAEKQGRTVTITRRQDRWEVRFD [D32Q]  12.4 kJ/mol
56. TETRTFDSEEEAKKAQKEAEKQGRTVTITRRKDRWEVRFD [D32K]  12.6 kJ/mol
57. TETRTFDSEEEAKKAQKEAEKQGRTSTITRRDDRWEVRFD [V26S]  12.6 kJ/mol
58. TETRTFDSEEEAKKAQKEAEKQGRTVTITRREDRWEVRFD [D32E]  12.9 kJ/mol
59. TETRTFDSEEEAKKAQKEAEKQGRTVTIVRRDDRWEVRFD [T29V]  13.2 kJ/mol
60. TETRTFDSEEEAKKAQKEAEKQGRTVTITRRNDRWEVRFD [D32N]  13.8 kJ/mol
61. TETRTFDSEEEAKKAQKEAEKQGRTATITRRDDRWEVRFD [V26A]  14.2 kJ/mol
62. TETRTFDSEEEAKKAQKEAEKQGRTCTITRRDDRWEVRFD [V26C]  15.1 kJ/mol
63. TETRTFDSEEEAKKAQKEAEKQGRTVTITRRGDRWEVRFD [D32G]  16.7 kJ/mol
